Reference: patent publication US20260008815A1, “CYCLIC PEPTIDE OR SALT THEREOF, AND USES THEREOF” (FUJIFILM Corporation, priority 2023, published 2026)
Numbered stars: 1 amine (or outer) side, 2 acyl side, 3 side chain; on linkers, the order of the positions; unused ones are H or OH. Bridge positions count the residues as written; N and C are the ends. Square brackets hold non-standard residues; d marks the D form. Primed or numbered codes have the meaning given here. Ends that are not written are not given here. acetyl″ = bridging -C(=O)-CH2- from a haloacetyl (chloroacetyl) group on the side-chain amine of K/Orn/Dab/Dap, the thiol sulfur replaces the halogen on its CH2 (X(acetyl) notation); acetyl = acetyl (haloacetyl before ring closure) on the side-chain amine, O=C(C[*:1])[*:2]; COCH2 = acetyl group that carries the bridge; hCys = N[C@@H](CCS)C(=O)O

biological target: T1, Recombinant Human FGFR2 alpha (IIIc) Fc Chimera Protein, CF (R&D systems, 712-FR-050) (human, UniProt P21802 22-377); assay: SPR, 10 nmol/L peptide over immobilized FGFR2-Fc; conditions: not given
T1 construct: bought; not shown: Fc part of the chimera
Method: A CM5 sensor chip (Cytiva, 29149603) was set in Biacore-T200 (manufactured by Cytiva) which is a surface plasmon resonance device, and an HBS-EP buffer (Cytiva, BR100826) was added as a running buffer at a flow rate of 10 μL/min to equilibrate the flow channel. Next, 70 μL of a mixed aqueous solution of 0.2 mol/L 1-(3-dimethylaminopropyl)-3-ethylcarbodiimide (EDC) and 0.05 mol/L N-hydroxysuccinimide (NHS) was added to activate the sensor chip. Then, Recombinant Human FGFR2 alpha (IIIc) Fc Chimera Protein CF (R&D systems, 712-FR-050) prepared at 50 nmol/L in an Acetate 4.5 buffer (Cytiva, BR100350) was added thereto to perform immobilization at about 5000 RU. Thereafter, the blocking treatment was performed with an ethanolamine solution. In addition, in another flow channel of the same sensor chip, blocking treatment was performed immediately after activation without immobilizing FGFR.
A cyclic peptide diluted to 10 nmol/L using HBS-EP was added to each flow channel of the FGFR-immobilized sensor chip produced above at 25° C. for 10 minutes, then HBS-EP was allowed to flow as a running buffer for 30 minutes, and the binding of the cyclic peptide to FGFR was measured. Thereafter, a regeneration treatment of removing the bound cyclic peptide was performed by repeating the flow of a regeneration liquid in which sodium chloride powder was dissolved in Glysine 1.5 (Cytiva, BR100354) to a final concentration of 0.15 mol/L for 1 minute in each flow channel twice. The binding amount of the cyclic peptide was evaluated from the difference between the measured value of Biacore-T200 in the flow channel in which FGFR was immobilized and the measured value of Biacore-T200 in the flow channel in which FGFR was not immobilated, in a case where a 10 nmol/L cyclic peptide was allowed to flow.

T1 sequence (P21802 22-377, change not shown): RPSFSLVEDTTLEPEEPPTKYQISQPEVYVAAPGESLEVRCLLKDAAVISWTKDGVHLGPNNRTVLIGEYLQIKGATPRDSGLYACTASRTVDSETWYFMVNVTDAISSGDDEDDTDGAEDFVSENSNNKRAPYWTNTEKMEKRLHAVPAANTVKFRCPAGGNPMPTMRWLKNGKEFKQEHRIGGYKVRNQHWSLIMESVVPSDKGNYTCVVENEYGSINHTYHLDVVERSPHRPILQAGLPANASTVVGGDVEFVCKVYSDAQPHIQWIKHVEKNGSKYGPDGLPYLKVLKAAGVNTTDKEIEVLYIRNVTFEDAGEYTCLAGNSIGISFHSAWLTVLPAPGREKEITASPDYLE

binding amount (SPR, cyclic peptide molecules bound per FGFR molecule at 10 nmol/L peptide)	Molecule
0.1 to 0.5 moleculesofthecyclicpeptide/onemoleculeoffgfr	YXHENYLDPEQYQYFHYFKKKK (thioether ring (Hcy)-(K(acetyl)), chemically synthesized) [cyclic peptide SEQ ID NO: 453]
≥ 0.7 moleculesofthecyclicpeptide/onemoleculeoffgfr	YKEENYLDPEQYQYFIYFXYKKK (thioether ring (K(acetyl))-(Hcy), chemically synthesized) [cyclic peptide SEQ ID NO: 446]
≥ 0.7 moleculesofthecyclicpeptide/onemoleculeoffgfr	YXEENYLDPEQYQYFIYFXYKKK (not fully specified; thioether ring (Dab(acetyl))-(Hcy), chemically synthesized) [cyclic peptide SEQ ID NO: 448]
≥ 0.7 moleculesofthecyclicpeptide/onemoleculeoffgfr	Q[hCys]PQNFINPVQWRYFQHYK(COCH2)NKKK (thioether 2-19 via acetyl″, chemically synthesized) [cyclic peptide SEQ ID NO: 433]
≥ 0.7 moleculesofthecyclicpeptide/onemoleculeoffgfr	QXPQNFINPVQWRYFQHYXNKKK (not fully specified; thioether ring (Hcy)-(Dab(acetyl)), chemically synthesized) [cyclic peptide SEQ ID NO: 435]
≥ 0.7 moleculesofthecyclicpeptide/onemoleculeoffgfr	QXPQNFINPVQWRYFQHYXNKKK (not fully specified; thioether ring (Dab(acetyl))-(Hcy), chemically synthesized) [cyclic peptide SEQ ID NO: 440]
< 0.1 moleculesofthecyclicpeptide/onemoleculeoffgfr	YCEENYLDPEQYQYFIYFCYKKK (disulfide 2-19 (inferred), chemically synthesized) [cyclic peptide SEQ ID NO: 451]
≥ 0.7 moleculesofthecyclicpeptide/onemoleculeoffgfr	QK(COCH2)PQNFINPVQWRYFQHY[hCys]NKKK (thioether 2-19 via acetyl″, chemically synthesized) [cyclic peptide SEQ ID NO: 437]
≥ 0.7 moleculesofthecyclicpeptide/onemoleculeoffgfr	YXEENYLDPEQYQYFIYFXYKKK (not fully specified; thioether ring (Hcy)-(Orn(acetyl)), chemically synthesized) [cyclic peptide SEQ ID NO: 443]
≥ 0.7 moleculesofthecyclicpeptide/onemoleculeoffgfr	QXPQNFINPVQWRYFQHYXNKKK (not fully specified; thioether ring (Orn(acetyl))-(Hcy), chemically synthesized) [cyclic peptide SEQ ID NO: 439]
0.5 to 0.7 moleculesofthecyclicpeptide/onemoleculeoffgfr	YXEENYLDPEQYQYFIYFXYKKK (not fully specified; thioether ring (Hcy)-(Dab(acetyl)), chemically synthesized) [cyclic peptide SEQ ID NO: 444]
≥ 0.7 moleculesofthecyclicpeptide/onemoleculeoffgfr	Y[hCys]EENYLDPEQYQYFIYFK(COCH2)YKKK (thioether 2-19 via acetyl″, chemically synthesized) [cyclic peptide SEQ ID NO: 442]
≥ 0.7 moleculesofthecyclicpeptide/onemoleculeoffgfr	YXHENYLDPEQYQYFHYFKYKKK (thioether ring (Hcy)-(K(acetyl)), chemically synthesized) [cyclic peptide SEQ ID NO: 452]
≥ 0.7 moleculesofthecyclicpeptide/onemoleculeoffgfr	YXEENYLDPEQYQYFIYFXYKKK (not fully specified; thioether ring (Dap(acetyl))-(Hcy), chemically synthesized) [cyclic peptide SEQ ID NO: 449]
≥ 0.7 moleculesofthecyclicpeptide/onemoleculeoffgfr	QXPQNFINPVQWRYFQHYXNKKK (not fully specified; thioether ring (Hcy)-(Orn(acetyl)), chemically synthesized) [cyclic peptide SEQ ID NO: 434]
≥ 0.7 moleculesofthecyclicpeptide/onemoleculeoffgfr	YXEENYLDPEQYQYFIYFXYKKK (not fully specified; thioether ring (Orn(acetyl))-(Hcy), chemically synthesized) [cyclic peptide SEQ ID NO: 447]
≥ 0.7 moleculesofthecyclicpeptide/onemoleculeoffgfr	QXPQNFINPVQWRYFQHYXNKKK (not fully specified; thioether ring (Dap(acetyl))-(Hcy), chemically synthesized) [cyclic peptide SEQ ID NO: 441]
0.1 to 0.5 moleculesofthecyclicpeptide/onemoleculeoffgfr	XHENYLDPEQYQYFHYFKYKKK (thioether ring (Hcy)-(K(acetyl)), chemically synthesized) [cyclic peptide SEQ ID NO: 454]
≥ 0.7 moleculesofthecyclicpeptide/onemoleculeoffgfr	QK(COCH2)PQNFINPVQWRYFQHY[hCys]NKKK (thioether 2-19 via acetyl″, chemically synthesized) [cyclic peptide SEQ ID NO: 438]

biological target: T2, Recombinant Human FGFR2 alpha (IIIc) Fc Chimera Protein (Homo sapiens, UniProt P21802); assay: ELISA binding affinity of enzymatically synthesized peptide to FGFR; conditions: ELISA luminescence signal at 10 nmol/L peptide, SEQ ID NO: 47 at 10 nmol/L standardized to 1; enzyme synthesis product
T2 construct: Fc (chimera); purchased R&D systems 712-FR-050
Summary of the method: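 FGFR2 alpha (IIIc) Fc chimera (5 ng/well) was immobilized, and Myc-tagged peptide was bound 3 h at room temperature, then detected with anti-Myc antibody (2 h) and chemiluminescent substrate. Signal was corrected against FGFR-free wells. Score A–D was the luminescence at 10 nmol/L peptide, normalized to cyclic peptide SEQ ID NO: 47.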

T2 sequence (P21802 with tags, fused parts or gaps limits assumed): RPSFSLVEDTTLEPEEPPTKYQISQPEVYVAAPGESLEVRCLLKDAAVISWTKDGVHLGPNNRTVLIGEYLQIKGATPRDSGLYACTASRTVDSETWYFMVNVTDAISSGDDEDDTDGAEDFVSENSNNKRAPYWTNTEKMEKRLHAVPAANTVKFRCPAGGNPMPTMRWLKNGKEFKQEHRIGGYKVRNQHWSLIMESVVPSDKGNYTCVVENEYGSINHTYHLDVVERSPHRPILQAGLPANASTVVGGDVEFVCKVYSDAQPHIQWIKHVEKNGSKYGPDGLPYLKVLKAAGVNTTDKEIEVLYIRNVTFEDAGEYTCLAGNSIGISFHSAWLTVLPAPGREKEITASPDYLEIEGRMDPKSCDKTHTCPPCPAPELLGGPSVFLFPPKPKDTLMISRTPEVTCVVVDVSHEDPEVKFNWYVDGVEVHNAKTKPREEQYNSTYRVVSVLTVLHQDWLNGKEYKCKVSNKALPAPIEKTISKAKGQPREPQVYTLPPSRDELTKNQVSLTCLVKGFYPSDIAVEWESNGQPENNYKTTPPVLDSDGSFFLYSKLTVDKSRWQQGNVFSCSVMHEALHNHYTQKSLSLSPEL

Evaluation result of binding affinity to FGFR	Molecule
A (0.7 or more)	341 (YCEENYLDKEQYQYFIYFK(COCH2)Y; thioether 2-19) [compound 341]
A (0.7 or more)	172 (YCEYNYLDPEQYQYFIYFK(COCH2)Y; thioether 2-19 (inferred)) [compound 172]
C (0.1 or more and less than 0.5)	378 (QCPRQLYYLYLYLSK(COCH2)I; thioether 2-15 (inferred)) [compound 378]
A (0.7 or more)	249 (YCEENYLDPRQYQYFIYFK(COCH2)Y; thioether 2-19 (inferred)) [compound 249]
C (0.1 or more and less than 0.5)	393 (YCHENYLDPEQHQYFHYFK(COCH2)Y; thioether 2-19 (inferred)) [compound 393]
C (0.1 or more and less than 0.5)	428 (ECDQAQQVYALIYRYLYQLQK(COCH2)V; thioether 2-21 via acetyl) [compound 428]
C (0.1 or more and less than 0.5)	380 (YCPPQLVYLYQYLYK(COCH2)L; thioether 2-15 (inferred)) [compound 380]
A (0.7 or more)	250 (YCEENYLDPHQYQYFIYFK(COCH2)Y; thioether 2-19 (inferred)) [compound 250]
B (0.5 or more and less than 0.7)	294 (YCEENYLDPEQYQYFIIFK(COCH2)Y; thioether 2-19) [compound 294]
A (0.7 or more)	147 (DCEENYLDPEQYQYFIYFKY; Description of Artificial Sequence: Cyclic peptide) [compound 147]
C (0.1 or more and less than 0.5)	183 (YCEEQYLDPEQYQYFIYFK(COCH2)Y; thioether 2-19 (inferred)) [compound 183]
A (0.7 or more)	130 (HCDGNWWNSQQFFYLLLYK(COCH2)H; thioether 2-19 (inferred)) [compound 130]
A (0.7 or more)	155 (YCVENYLDPEQYQYFIYFK(COCH2)Y; thioether 2-19 (inferred)) [compound 155]
A (0.7 or more)	300 (YCEENYLDPEQYQYFISFK(COCH2)Y; thioether 2-19 (inferred)) [compound 300]
B (0.5 or more and less than 0.7)	43 (HCNANFVYQQQYLYLLQYK(COCH2)L; thioether 2-19 via acetyl) [compound 43]
A (0.7 or more)	125 (YCRDNYFYLEQWQYLYLYK(COCH2)H; thioether 2-19 (inferred)) [compound 125]
A (0.7 or more)	66 (KCPQNFINPVQWRYFQAYK(COCH2)N; thioether 2-19 (inferred)) [compound 66]
A (0.7 or more)	275 (YCEENYLDPEQYQYLIYFK(COCH2)Y; thioether 2-19) [compound 275]
C (0.1 or more and less than 0.5)	253 (YCEENYLDPEQIQYFIYFK(COCH2)Y; thioether 2-19 (inferred)) [compound 253]
A (0.7 or more)	88 (QCPQNFINPVQWRYLQHYK(COCH2)N; thioether 2-19 (inferred)) [compound 88]
A (0.7 or more)	339 (YCEENYKDPEQYQYFIYFK(COCH2)Y; thioether 2-19 (inferred)) [compound 339]
A (0.7 or more)	198 (YCEENYYDPEQYQYFIYFK(COCH2)Y; thioether 2-19 (inferred)) [compound 198]
A (0.7 or more)	53 (ACPQNFINPVQWRYFQHYKN; not fully specified; Description of Artificial Sequence: Cyclic peptide) [compound 53]
A (0.7 or more)	73 (LCPQNFINPVQWRYFQHYK(COCH2)N; thioether 2-19 (inferred)) [compound 73]
A (0.7 or more)	329 (YCEENYLDAEQYQYFIYFK(COCH2)Y; thioether 2-19 (inferred)) [compound 329]
A (0.7 or more)	166 (YCEGNYLDPEQYQYFIYFK(COCH2)Y; thioether 2-19 (inferred)) [compound 166]
C (0.1 or more and less than 0.5)	367 (HCQLEYLYTYVLK(COCH2)I; thioether 2-13) [compound 367]
